Tested on: Escherichia coli TOP10
Experiment: shrunken log2 fold change of peptide-encoding DNA abundance (4.5 h post-induction vs induction); higher = less antimicrobial activity (less host growth inhibition)
Details: time post-induction: 4.5 h; library: site-saturation at positions 5, 18, 19, 20
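Further: peptides expressed intracellularly from a pBAD plasmid library in pooled LB shake-flask culture, induced with 0.3% L-arabinose, DNA abundance read by NGS, three biological replicates, DESeq2 with apeglm shrinkage.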

Row | Sequence | shrunken log2 fold change
1 | RRIRIRPPRLPRPRPRPNADPRP | -0.322
2 | RRIRIRPPRLPRPRPRPNALPRP | -0.245
3 | RRIRIRPPRLPRPRPRPNCAPRP | -0.187
4 | RRIRIRPPRLPRPRPRPNCHPRP | -0.232
5 | RRIRIRPPRLPRPRPRPNCPPRP | -0.231
6 | RRIRIRPPRLPRPRPRPNCYPRP | -0.923
7 | RRIRIRPPRLPRPRPRPNFIPRP | -0.327
8 | RRIRIRPPRLPRPRPRPNFLPRP | -0.677
9 | RRIRIRPPRLPRPRPRPNILPRP | -0.557
10 | RRIRIRPPRLPRPRPRPNKFPRP | -0.992
11 | RRIRIRPPRLPRPRPRPNLFPRP | -0.512
12 | RRIRIRPPRLPRPRPRPNMFPRP | -0.394
13 | RRIRIRPPRLPRPRPRPNMGPRP | -0.563
14 | RRIRIRPPRLPRPRPRPNMMPRP | -0.298
15 | RRIRIRPPRLPRPRPRPNPNPRP | -0.556
16 | RRIRIRPPRLPRPRPRPNPTPRP | -0.17
17 | RRIRIRPPRLPRPRPRPNTDPRP | -0.703
18 | RRIRIRPPRLPRPRPRPNTFPRP | -0.926
19 | RRIRIRPPRLPRPRPRPNTTPRP | -0.357
20 | RRIRIRPPRLPRPRPRPPCWPRP | 0.836
21 | RRIRIRPPRLPRPRPRPPDHPRP | -0.134
22 | RRIRIRPPRLPRPRPRPPECPRP | -0.17
23 | RRIRIRPPRLPRPRPRPPEEPRP | 0.0652
24 | RRIRIRPPRLPRPRPRPPEKPRP | -0.0181
25 | RRIRIRPPRLPRPRPRPPGFPRP | 0.195

Row | Sequence | shrunken log2 fold change
26 | RRIRIRPPRLPRPRPRPPGYPRP | 0.0184
27 | RRIRIRPPRLPRPRPRPPHAPRP | 0.162
28 | RRIRIRPPRLPRPRPRPPHKPRP | -0.0846
29 | RRIRIRPPRLPRPRPRPPIDPRP | -0.724
30 | RRIRIRPPRLPRPRPRPPKVPRP | -0.0254
31 | RRIRIRPPRLPRPRPRPPLDPRP | 0.0528
32 | RRIRIRPPRLPRPRPRPPLQPRP | 0.0345
33 | RRIRIRPPRLPRPRPRPPLWPRP | 0.504
34 | RRIRIRPPRLPRPRPRPPMSPRP | -0.288
35 | RRIRIRPPRLPRPRPRPPRKPRP | 0.0691
36 | RRIRIRPPRLPRPRPRPPRLPRP | 0.256
37 | RRIRIRPPRLPRPRPRPPSPPRP | 0.168
38 | RRIRIRPPRLPRPRPRPPSQPRP | 0.258
39 | RRIRIRPPRLPRPRPRPPVFPRP | 0.0815
40 | RRIRIRPPRLPRPRPRPPVVPRP | 0.0726
41 | RRIRIRPPRLPRPRPRPPWKPRP | 0.089
42 | RRIRIRPPRLPRPRPRPPWVPRP | 0.0988
43 | RRIRIRPPRLPRPRPRPPYDPRP | -0.814
44 | RRIRIRPPRLPRPRPRPQAMPRP | -0.0316
45 | RRIRIRPPRLPRPRPRPQCIPRP | -0.37
46 | RRIRIRPPRLPRPRPRPQDRPRP | -0.007
47 | RRIRIRPPRLPRPRPRPQEIPRP | -0.581
48 | RRIRIRPPRLPRPRPRPQEPPRP | -0.04
49 | RRIRIRPPRLPRPRPRPQFCPRP | -0.32
50 | RRIRIRPPRLPRPRPRPQHHPRP | -0.875

Row | Sequence | shrunken log2 fold change
51 | RRIRIRPPRLPRPRPRPQHVPRP | -0.211
52 | RRIRIRPPRLPRPRPRPQINPRP | -0.776
53 | RRIRIRPPRLPRPRPRPQKMPRP | -0.269
54 | RRIRIRPPRLPRPRPRPQNGPRP | -0.294
55 | RRIRIRPPRLPRPRPRPQNIPRP | -1.22
56 | RRIRIRPPRLPRPRPRPQPAPRP | 0.213
57 | RRIRIRPPRLPRPRPRPQPLPRP | -0.371
58 | RRIRIRPPRLPRPRPRPQQLPRP | -0.0183
59 | RRIRIRPPRLPRPRPRPQRRPRP | 0.19
60 | RRIRIRPPRLPRPRPRPQSKPRP | -0.493
61 | RRIRIRPPRLPRPRPRPQTEPRP | -0.168
62 | RRIRIRPPRLPRPRPRPQWQPRP | -0.182
63 | RRIRIRPPRLPRPRPRPQYAPRP | 0.0303
64 | RRIRIRPPRLPRPRPRPQYYPRP | -1.28
65 | RRIRIRPPRLPRPRPRPRAMPRP | -0.0601
66 | RRIRIRPPRLPRPRPRPRAYPRP | -0.315
67 | RRIRIRPPRLPRPRPRPREDPRP | -0.036
68 | RRIRIRPPRLPRPRPRPRFFPRP | -0.123
69 | RRIRIRPPRLPRPRPRPRFSPRP | -0.231
70 | RRIRIRPPRLPRPRPRPRGGPRP | 0.217
71 | RRIRIRPPRLPRPRPRPRHAPRP | 0.128
72 | RRIRIRPPRLPRPRPRPRHHPRP | -0.408
73 | RRIRIRPPRLPRPRPRPRHMPRP | -0.12
74 | RRIRIRPPRLPRPRPRPRIVPRP | -1.21
75 | RRIRIRPPRLPRPRPRPRKHPRP | -0.252

Row | Sequence | shrunken log2 fold change
76 | RRIRIRPPRLPRPRPRPRKPPRP | -0.0479
77 | RRIRIRPPRLPRPRPRPRLDPRP | 0.1
78 | RRIRIRPPRLPRPRPRPRLGPRP | 0.0473
79 | RRIRIRPPRLPRPRPRPRLKPRP | 0.0139
80 | RRIRIRPPRLPRPRPRPRLTPRP | -0.0559
81 | RRIRIRPPRLPRPRPRPRLWPRP | 0.0665
82 | RRIRIRPPRLPRPRPRPRMDPRP | -0.389
83 | RRIRIRPPRLPRPRPRPRMKPRP | -0.0587
84 | RRIRIRPPRLPRPRPRPRMWPRP | -0.0292
85 | RRIRIRPPRLPRPRPRPRNPPRP | -0.0124
86 | RRIRIRPPRLPRPRPRPRQQPRP | 0.0393
87 | RRIRIRPPRLPRPRPRPRRIPRP | -0.677
88 | RRIRIRPPRLPRPRPRPRSDPRP | -0.284
89 | RRIRIRPPRLPRPRPRPRSGPRP | 0.242
90 | RRIRIRPPRLPRPRPRPRSMPRP | -0.695
91 | RRIRIRPPRLPRPRPRPRTEPRP | 0.0225
92 | RRIRIRPPRLPRPRPRPRTMPRP | -0.377
93 | RRIRIRPPRLPRPRPRPRVWPRP | 0.618
94 | RRIRIRPPRLPRPRPRPRVYPRP | 0.00283
95 | RRIRIRPPRLPRPRPRPRWEPRP | 0.0225
96 | RRIRIRPPRLPRPRPRPRYEPRP | -0.011
97 | RRIRIRPPRLPRPRPRPRYIPRP | -0.242
98 | RRIRIRPPRLPRPRPRPRYRPRP | -0.386
99 | RRIRIRPPRLPRPRPRPSASPRP | 0.0632
100 | RRIRIRPPRLPRPRPRPSCKPRP | -0.122

Row | Sequence | shrunken log2 fold change
101 | RRIRIRPPRLPRPRPRPSCLPRP | -0.998
102 | RRIRIRPPRLPRPRPRPSDEPRP | -0.698
103 | RRIRIRPPRLPRPRPRPSDGPRP | -0.0648
104 | RRIRIRPPRLPRPRPRPSECPRP | -0.00498
105 | RRIRIRPPRLPRPRPRPSEGPRP | -0.0262
106 | RRIRIRPPRLPRPRPRPSEIPRP | 0.0838
107 | RRIRIRPPRLPRPRPRPSELPRP | -0.186
108 | RRIRIRPPRLPRPRPRPSHIPRP | -0.879
109 | RRIRIRPPRLPRPRPRPSLMPRP | -0.246
110 | RRIRIRPPRLPRPRPRPSLYPRP | -0.535
111 | RRIRIRPPRLPRPRPRPSMGPRP | -0.222
112 | RRIRIRPPRLPRPRPRPSNQPRP | -1.08
113 | RRIRIRPPRLPRPRPRPSNRPRP | -0.139
114 | RRIRIRPPRLPRPRPRPSPHPRP | -1.03
115 | RRIRIRPPRLPRPRPRPSREPRP | -0.0977
116 | RRIRIRPPRLPRPRPRPSSPPRP | -0.746
117 | RRIRIRPPRLPRPRPRPSSTPRP | -0.955
118 | RRIRIRPPRLPRPRPRPSTGPRP | -0.505
119 | RRIRIRPPRLPRPRPRPSTHPRP | -1.02
120 | RRIRIRPPRLPRPRPRPSVNPRP | -0.225
121 | RRIRIRPPRLPRPRPRPSWVPRP | -0.168
122 | RRIRIRPPRLPRPRPRPSYDPRP | -0.414
123 | RRIRIRPPRLPRPRPRPSYIPRP | -1.04
124 | RRIRIRPPRLPRPRPRPTCGPRP | -0.0476
125 | RRIRIRPPRLPRPRPRPTELPRP | -0.0944

Row | Sequence | shrunken log2 fold change
126 | RRIRIRPPRLPRPRPRPTEMPRP | 0.112
127 | RRIRIRPPRLPRPRPRPTFHPRP | -0.266
128 | RRIRIRPPRLPRPRPRPTGNPRP | -0.626
129 | RRIRIRPPRLPRPRPRPTHAPRP | 0.216
130 | RRIRIRPPRLPRPRPRPTIIPRP | -0.848
131 | RRIRIRPPRLPRPRPRPTIRPRP | -0.995
132 | RRIRIRPPRLPRPRPRPTKFPRP | -0.164
133 | RRIRIRPPRLPRPRPRPTKSPRP | -0.141
134 | RRIRIRPPRLPRPRPRPTLAPRP | 0.236
135 | RRIRIRPPRLPRPRPRPTLKPRP | -0.132
136 | RRIRIRPPRLPRPRPRPTLRPRP | 0.0906
137 | RRIRIRPPRLPRPRPRPTMCPRP | -0.386
138 | RRIRIRPPRLPRPRPRPTNFPRP | -0.535
139 | RRIRIRPPRLPRPRPRPTPSPRP | 0.0658
140 | RRIRIRPPRLPRPRPRPTRGPRP | 0.0292
141 | RRIRIRPPRLPRPRPRPTVIPRP | -0.108
142 | RRIRIRPPRLPRPRPRPTWIPRP | -0.415
143 | RRIRIRPPRLPRPRPRPTWTPRP | 0.398
144 | RRIRIRPPRLPRPRPRPVAAPRP | 0.176
145 | RRIRIRPPRLPRPRPRPVACPRP | -0.154
146 | RRIRIRPPRLPRPRPRPVALPRP | -0.278
147 | RRIRIRPPRLPRPRPRPVCGPRP | -0.0405
148 | RRIRIRPPRLPRPRPRPVDMPRP | -0.51
149 | RRIRIRPPRLPRPRPRPVDPPRP | 0.106
150 | RRIRIRPPRLPRPRPRPVEPPRP | -0.115
